The record followed here is patent US20250215091A1, “Anti-GAL3 Antibodies and Compositions” (Les Laboratoires Servier, priority 2022, published 2025).

In experiment [1] the target is T1, CRD domain of human Galectin-3 (human, UniProt P17931 106-250).
T1 construct: Histidine-tagged; also called hu-Gal3-CRD; Hu-Gal3-CRD
Nature of the experiment: SPR single-cycle kinetics, captured antibody, Gal3-CRD 0.5-50 nM. On the procedure: (§1) The CM5 sensor surface was first immobilized with an anti-human Fc mAb using a standard protocol. The entire sensor surface was first activated by injecting a 1:1 (v/v) mixture of 400 mM EDC and 100 mM NHS at a flow rate of 10 μL/minute for 7 minutes. Monoclonal anti-human Fc antibody (Millipore AP113), 25 μg/mL in Na acetate pH5, 360 s were flowed at 10 μL/minute to reach 10000 RU on both flow cells followed by the injection of 1 M ethanolamine, pH8.5 for 7 minutes at a flow rate of 10 μL/minute. During the entire immobilization procedure, HBS-P was used as the running buffer.
(§2) Antibody samples were prepared at 5 μg/ml and were injected for 30 seconds at 10 μL/minute. In general, 400 to 680 resonance units of antibodies were captured on the chip.
(§3) Kd values were also determined by SPR using […] kinetics analysis. A total of 5 concentrations of Gal3 CRD domain from human, dog, rat and cynomolgus (Novalix) [0.5-50] nM were injected over the antibody capture surfaces for 210 seconds followed by a dissociation phase of 600 seconds at 30 μL/minute. At the end of each cycle, capture surfaces were regenerated by 2 injections of glycine pH 1.5, for 30 seconds at 10 μL/minute, followed by an extra wash with glycine pH 1.5. Fresh antibody was captured at the beginning of each cycle.

For experiment [2], the target named is T2, Gal3 CRD domain from cynomolgus (cynomolgus, UniProt A0A7N9CYL1 103-247).
T2 construct: domain: CRD domain; also called cynomolgus Gal3-CRD
The description is as above. As for the experimental part: as §1, §2, §3

Another experiment addresses T3, Gal3 CRD domain from rat (rat, UniProt P08699 118-262, limits assumed).
T3 construct: domain: CRD domain; also called rat Gal3-CRD
T3 sequence (looked up): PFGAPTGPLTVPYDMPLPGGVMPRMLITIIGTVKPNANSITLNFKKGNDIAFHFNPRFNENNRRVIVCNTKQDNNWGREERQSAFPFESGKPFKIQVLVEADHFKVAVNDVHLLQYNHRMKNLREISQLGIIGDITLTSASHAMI
The description is as above. On the procedure:
as §1, §2, §3

Another experiment has as its target T4, Gal3 CRD domain from dog (dog, UniProt P38486 152-296, limits assumed).
T4 construct: domain: CRD domain; also called dog Gal3-CRD
T4 sequence (looked up): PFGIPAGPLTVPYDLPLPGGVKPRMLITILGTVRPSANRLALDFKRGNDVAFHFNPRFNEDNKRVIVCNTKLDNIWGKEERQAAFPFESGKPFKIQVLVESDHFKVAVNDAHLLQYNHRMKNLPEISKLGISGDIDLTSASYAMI
The experiment is described as above. As for the experimental part:
as §1, §2, §3

The target of experiment [3] is T1, CRD domain of human Galectin-3. Description: competitive ELISA, inhibition of ASF binding to immobilized Hu-Gal3-CRD. As for the experimental part:
The inhibitory properties and IC50 of the anti-Gal3 antibodies were determined in an ELISA competitive assay by measuring the binding of ASF to immobilized CRD domain of human Gal3 in absence or presence of the antibodies at different concentrations.
The inhibition assay was performed on Hu-Gal3-CRD which was immobilized at 1 μg/mL through its His-tag on functionalized microplates. A 2-fold or 3-fold serial dilution was carried-out with the purified IgGs and added to the wells with immobilized Hu-Gal3-CRD. ASF (A1908-Sigma reference) was added at 8 μg/mL in each well with or without IgGs. ASF binding to Hu-Gal3-CRD was detected with the HRP-labeled anti-ASF sheep antibody. IC50 were estimated according to the model equation Y=Bottom+(Top−Bottom)/(1+(X/IC50)). Indicative maximal percentages of inhibition were obtained with the formula: 100%−(((mean of bottom plateau values of IgGs)×100%)/mean of irrelevant IgG values)

Experiment [4] addresses T5, full length mouse Galectin-3 (mouse, UniProt P16110 2-264).
T5 construct: Printed as 'full length'; recombinant, immobilized through a histidine tag; also called m-Gal3-FL; murine Gal3
Nature of the experiment: dose-response ELISA on immobilized m-Gal3-FL, IgG. On the procedure: (§4) To determine the half maximal effective concentration (EC50) of the antibodies, ELISA dose-response experiments were performed on Hu-Gal3-FL and on m-Gal3-FL.
(§5) Hu-Gal3-FL and m-Gal3-FL were immobilized at 3 μg/mL through their His-tag on functionalized microplates as before. A 3.3-fold serial dilution was carried-out with the purified IgGs, added to the wells containing immobilized Hu-Gal3-FL or m-Gal3-FL and detected with an anti-Fab.HRP antibody.
For orientation: In an ELISA, binding on a coated surface is turned into a signal by an enzyme label.

In experiment [5] the target is T6, full length human Galectin-3 (human, UniProt P17931 2-250).
T6 construct: Printed as 'full length'; recombinant, immobilized through a histidine tag; also called hu-Gal3-FL; Hu-Gal3-FL
T6 sequence (P17931 2-250 limits assumed): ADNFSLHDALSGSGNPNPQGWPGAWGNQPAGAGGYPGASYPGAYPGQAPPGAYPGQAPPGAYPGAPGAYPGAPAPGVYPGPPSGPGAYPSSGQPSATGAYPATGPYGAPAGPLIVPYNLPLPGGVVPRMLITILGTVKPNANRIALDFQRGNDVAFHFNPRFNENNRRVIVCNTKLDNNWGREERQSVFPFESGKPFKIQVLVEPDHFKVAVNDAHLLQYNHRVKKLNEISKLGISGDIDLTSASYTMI
Nature of the experiment: SPR Biacore T-200, antibody captured by anti-human Fc, Gal3 in solution. As for the experimental part: as §1, §2
For orientation: Surface plasmon resonance follows binding to a sensor surface in real time, without labels.

Experiment [6] addresses T5, full length mouse Galectin-3. The experiment is described as above. As for the experimental part:
as §1, §2

The target of experiment [7] is T6, full length human Galectin-3. Description: dose-response ELISA on immobilized Hu-Gal3-FL, IgG. On the procedure:
as §4, §5

The target in experiment [8] is T7, human full-length Galectin-1 (human, UniProt P09382 2-135).
T7 construct: full-length; Histidine-tagged; also called Hu-Gall; Gall
T7 sequence (P09382 2-135 limits assumed): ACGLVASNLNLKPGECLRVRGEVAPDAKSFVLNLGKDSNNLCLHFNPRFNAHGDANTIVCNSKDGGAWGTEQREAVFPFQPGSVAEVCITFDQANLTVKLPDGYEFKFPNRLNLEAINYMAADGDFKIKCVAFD
Nature of the experiment: ELISA on immobilised antigen (3 µg/mL), purified IgG at 15-20 µg/mL, anti-Fab.HRP, OD 450 nm. As for the experimental part:
(§6) IgG specificity to Gal3 was tested by checking the absence of binding on human Gall and Gal7 by ELISA.
(§7) Hu-Gall and Hu-Gal7 were immobilized at 3 μg/mL. Purified IgGs were added into the wells (15-20 μg/mL final concentration) and detected with an anti-Fab.HRP antibody. Rabbit antibodies directed against Gall (Abcam ab25138 reference) and Gal7 (Abcam ab108623 reference) were used at 5 μg/mL as antigen-coating positive controls and detected with an anti-rabbit.HRP secondary antibody (7074S-Cell Signaling reference).

The target in experiment [9] is T8, human full-length Galectin-7 (human, UniProt P47929 1-136).
T8 construct: full-length; Histidine-tagged; also called Hu-Gal7; Gal7
T8 sequence (P47929 whole entry): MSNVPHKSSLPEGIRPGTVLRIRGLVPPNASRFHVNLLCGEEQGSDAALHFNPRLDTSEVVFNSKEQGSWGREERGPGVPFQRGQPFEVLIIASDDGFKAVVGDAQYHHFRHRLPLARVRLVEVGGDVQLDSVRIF
The experiment is described as above. As for the experimental part: as §6, §7

Experiment [10] concerns the target T5, full length mouse Galectin-3. Nature of the experiment: ratio of the ELISA EC50 values on Hu-Gal3-FL and m-Gal3-FL. As for the experimental part:
as §4, §5

T5 sequence (P16110 2-264 limits assumed): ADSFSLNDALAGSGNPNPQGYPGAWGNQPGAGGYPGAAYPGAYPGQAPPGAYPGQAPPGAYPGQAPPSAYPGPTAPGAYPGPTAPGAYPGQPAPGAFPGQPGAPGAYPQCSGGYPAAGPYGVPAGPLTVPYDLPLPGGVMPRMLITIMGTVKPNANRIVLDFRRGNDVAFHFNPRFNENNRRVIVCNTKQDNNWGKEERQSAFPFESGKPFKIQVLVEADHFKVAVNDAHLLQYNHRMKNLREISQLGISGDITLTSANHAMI
T1 sequence (P17931 106-250 limits assumed): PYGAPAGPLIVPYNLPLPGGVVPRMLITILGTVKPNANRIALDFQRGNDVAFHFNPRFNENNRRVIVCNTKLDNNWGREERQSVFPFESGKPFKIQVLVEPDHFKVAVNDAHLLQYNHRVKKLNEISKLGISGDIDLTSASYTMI

B1: anti-Gal3 antibody D06 (antibody, V domains shown)
VH: EVQLVESGGSLVKPGGSLRLSCAASGFTFSNYNMNWVRQAPGKGLEWISSIYGSSRYIYYADFVKGRFTISRDNAKNSLYLQMNSLRAEDTAVYYCVRSGYGGMDVWGRGTLVTVSS
VL: QSVLTQPASVSGSPGQSITISCAGTSSDVGGYNGVSWYQQHPGKAPKLMIYYDSYRPSGVSNRFSGSKSGNTASLTISGLQAEDEADYYCSSGTDYSTRVFGGGTKLEIK
In the case of B1, the Kd came to 15 nM in [1]; 10 nM in [2]; 4.8 nM with Gal3 CRD domain from rat; 12 nM with Gal3 CRD domain from dog; 13 nM in [5]; 1.34 nM in experiment [6]. The IC50 in [3] was 5.1 nM. Further, in experiment [3], the Max % inhibition was 82%. The EC50 in experiment [4] stood at 0.16 nM; in experiment [7], 0.26 nM. Further, the binding result in experiment [8] and in experiment [9] was “no binding (tested: 15-20 µg/mL)” each time. Also, in [10], the “Ratio (Human/mouse Gal3 EC50 ratio)” value is 2.

B2: anti-Gal3 antibody D11 (antibody, V domains shown)
VH: EVQLVESGGSLVKPGGSLRLSCAASGFTFSNYNMNWVRQAPGKGLEWISSIYGSSRYIYYADFVKGRFTISRDNAKNSLYLQMNSLRAEDTAVYYCVRSSYGGMDVWGRGTLVTVSS
VL: QSVLTQPASVSGSPGQSITISCAGTSSDVGGSYNVAWYQQHPGKAPKLMIYYDSYRPSGVSNRFSGSKSGNTASLTISGLQAEDEADYYCSSYTGYSTRVFGGGTKLEIK
On to B2, for which the Kd in [1] was found to be 26 nM; in [2], 11 nM; in the experiment with Gal3 CRD domain from rat it was 8.6 nM; in the experiment with Gal3 CRD domain from dog it was 26 nM; in experiment [5] it was 15 nM; in experiment [6] it was 2.8 nM. This molecule also registered an IC50 in [3] of 2.2 nM. This molecule displayed a Max % inhibition in experiment [3] of 99%. The results for the EC50 in experiment [4] and in experiment [7] were 0.99 nM and 0.37 nM, respectively. Also, the binding result in experiment [8] and in experiment [9] was “no binding (tested: 15-20 µg/mL)” in each case. Moreover, in experiment [10], the “Ratio (Human/mouse Gal3 EC50 ratio)” value was determined as 3.

B3: anti-Gal3 antibody H10 (antibody, V domains shown)
VH: EVQLVESGGSLVKPGGSLRLSCAASGFTFSNYYMNWVRQAPGKGLEWISYINGASRDISYADFVKGRFTISRDNAKNSLYLQMNSLRAEDTAVYYCVRSSYGYSNYGSGMDVWGRGTLVTVSS
VL: QSVLTQPASVSGSPGQSITISCAGTSSDVGGSYNVAWYQQHPGKAPKLMIYNDANRPSGVSNRFSGSKSGNTASLTISGLQAEDEADYYCSSNTADSTRVFGGGTKLEIK
For the molecule B3, the dissociation constant (Kd) in [1] turned out to be 8.2 nM; in experiment [2], 5.6 nM; with Gal3 CRD domain from rat, 12 nM; with Gal3 CRD domain from dog, 24 nM; in experiment [5] it was 4.5 nM; in [6], 2.72 nM. The molecule further yielded an IC50 in experiment [3] of 2.7 nM. For the same molecule, the Max % inhibition in experiment [3] came to 89%. Further, the EC50 was found to be 5.9 nM in experiment [4] and 0.2 nM in [7]. Moreover, the binding result in experiment [8] and in experiment [9] was “no binding (tested: 15-20 µg/mL)” throughout. The “Ratio (Human/mouse Gal3 EC50 ratio)” value in experiment [10] is 30.

B4: anti-Gal3 antibody G03 (antibody, V domains shown)
VH: EVQLVESGGSLVKPGGSLRLSCAASGFTFSNYAMNWVRQAPGKGLEWISSIYGSSRYIYYADFVKGRFTISRDNAKNSLYLQMNSLRAEDTAVYYCVRSYNGGMDVWGRGTLVTVSS
VL: QSVLTQPASVSGSPGQSITISCAGTSSDVGGYYNVAWYQQHPGKAPKLMIYYDSYRPSGVSNRFSGSKSGNTASLTISGLQAEDEADYYCSSSTGYSTRVFGGGTKLEIK
In [3], B4 came in with a half-maximal inhibitory concentration (IC50) of 1.8 nM. This molecule yielded a Max % inhibition in experiment [3] of 83%. Also, the values for the half-maximal effective concentration (EC50) in experiment [4] and in experiment [7] were 13.6 nM and 0.52 nM, respectively. Further, the Kd in experiment [5] is 6 nM; in experiment [6] it was 4.53 nM. Moreover, the binding result in [8] and in experiment [9] was “no binding (tested: 15-20 µg/mL)” each time. For the same molecule, the “Ratio (Human/mouse Gal3 EC50 ratio)” value in experiment [10] came to 26.

B5: anti-Gal3 antibody E07 (antibody, V domains shown)
VH: EVQLVESGGSLVKPGGSLRLSCAASGFTFSNYNMNWVRQAPGKGLEWISNIYGSSRYIYYADFVKGRFTISRDNAKNSLYLQMNSLRAEDTAVYYCVRSYYGGMDVWGRGTLVTVSS
VL: QSVLTQPASVSGSPGQSITISCAGTSSDVGGYYSVSWYQQHPGKAPKLMIYYDSNRPSGVSNRFSGSKSGNTASLTISGLQAEDEADYYCSSYTGYSTRVFGGGTKLEIK
Turning to B5, the dissociation constant Kd was found to be 14 nM in [1]; 7.4 nM in experiment [2]; 15 nM with Gal3 CRD domain from rat; 23 nM with Gal3 CRD domain from dog; 9 nM in experiment [5]; 4.14 nM in experiment [6]. The same molecule showed an IC50 in experiment [3] of 1.5 nM. For the same molecule, the Max % inhibition in experiment [3] worked out at 89%. Moreover, the EC50 in [4] is 0.3 nM; in experiment [7], 0.07 nM. For the same molecule, the binding result in [8] and in [9] was “no binding (tested: 15-20 µg/mL)” throughout. In [10], the “Ratio (Human/mouse Gal3 EC50 ratio)” value came out at 4.

For orientation: Kd means the free concentration of one partner at which half of the binding sites on the other are occupied at equilibrium, for simple one-to-one binding. The low end stands for higher affinity, the high end for lower affinity. As a reminder, the IC50 is the midpoint of a concentration-inhibition curve. Higher therefore signals lower potency. By EC50 is commonly meant the concentration at which the effect is half-maximal. A low value points to a more potent agent.
